Results: patent publication US11649285B2

Molecular target: human VISTA, native (on anti-CD3-activated human T cells and PBMCs) (human (homo sapiens))

control recombinant human IgG1 Fc gave a division of CFSE-labeled human CD3+ T cells with plate-bound anti-CD3 and control rhIgG1Fc, flow cytometry (% CD3+ T cells dividing (72 hours)) of over 40.
